Test results taken from US7410801 (UNIVERSITY OF DELHI DEPARTMENT OF BIOCHEMISTRY, dated 2008).

Target: mesothelin (UniProt Q13421 296-598)
Test: ELISA, purified phages added to mesothelin coated wells

mesothelin, sequence (Q13421 other isoform, or with tags, fused parts or gaps limits assumed): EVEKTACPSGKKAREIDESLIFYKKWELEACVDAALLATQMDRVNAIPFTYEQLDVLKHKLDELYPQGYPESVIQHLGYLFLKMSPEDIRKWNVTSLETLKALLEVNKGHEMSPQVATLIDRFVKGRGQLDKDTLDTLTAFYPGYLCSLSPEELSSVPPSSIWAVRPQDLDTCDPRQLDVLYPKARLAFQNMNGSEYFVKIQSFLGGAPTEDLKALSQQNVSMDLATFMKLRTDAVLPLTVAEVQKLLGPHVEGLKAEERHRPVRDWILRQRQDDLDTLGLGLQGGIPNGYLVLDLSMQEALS

B1: D-cmyc fusion protein displayed on lambda phage λDcDL1 (other)
chain (part 1 of 2): MTSKETFTHYQPQGNSDPAHTATAPGGLSAKAPAMTPLMLDTSSRKLVAWDGTTDGAAVGILAVAADQTSTTLTFYKSGTFRYEDVLWPEAASDETKKRTAFAGTAISIV
chain (part 2 of 2): EQKLISEEDL
notes: also called DcDL1 phages
  binding result: no binding
